Test results reported in US20250367237A1 (TENEOBIO, published 2025).
Residue numbers refer to the chain shown, from its start.

T1: human c-Kit, GNNK- isoform, expressed on SEM cells (human, UniProt P10721 26-976)
T1 chain: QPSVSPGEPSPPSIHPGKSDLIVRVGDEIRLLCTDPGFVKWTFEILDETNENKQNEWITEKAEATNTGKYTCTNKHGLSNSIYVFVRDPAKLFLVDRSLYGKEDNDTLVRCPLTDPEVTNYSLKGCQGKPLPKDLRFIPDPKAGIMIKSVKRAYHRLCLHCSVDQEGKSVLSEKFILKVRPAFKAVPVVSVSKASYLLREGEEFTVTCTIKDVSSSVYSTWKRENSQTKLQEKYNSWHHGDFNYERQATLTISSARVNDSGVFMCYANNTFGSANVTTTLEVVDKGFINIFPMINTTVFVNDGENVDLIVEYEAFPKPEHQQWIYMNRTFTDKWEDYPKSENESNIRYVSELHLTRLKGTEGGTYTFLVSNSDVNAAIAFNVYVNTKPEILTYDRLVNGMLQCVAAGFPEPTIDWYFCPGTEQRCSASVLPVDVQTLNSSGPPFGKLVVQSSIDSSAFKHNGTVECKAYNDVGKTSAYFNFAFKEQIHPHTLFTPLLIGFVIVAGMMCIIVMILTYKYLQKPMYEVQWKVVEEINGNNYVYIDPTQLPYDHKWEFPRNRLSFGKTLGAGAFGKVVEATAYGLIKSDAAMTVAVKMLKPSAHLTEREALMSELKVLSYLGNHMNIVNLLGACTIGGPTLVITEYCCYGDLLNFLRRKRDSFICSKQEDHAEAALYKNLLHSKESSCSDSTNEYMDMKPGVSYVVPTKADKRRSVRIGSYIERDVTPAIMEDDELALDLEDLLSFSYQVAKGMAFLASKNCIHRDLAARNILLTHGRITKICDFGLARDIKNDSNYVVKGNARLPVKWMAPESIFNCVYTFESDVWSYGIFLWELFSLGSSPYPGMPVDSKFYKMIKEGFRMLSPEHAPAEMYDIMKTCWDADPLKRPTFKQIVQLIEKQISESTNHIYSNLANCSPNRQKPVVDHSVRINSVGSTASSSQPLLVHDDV

B1: anti-c-Kit single domain antibody Clone ID # 408366 (VHH)
VHH: EVQLLESGGGLVQPGGSLRLSCAASGLTISTYAMSWVRQAPGKGLEWVSAISTGGSSTYYADSVKGRFTISRDNSKNTLYLQMNSLRAEDTAVYYCATGYDSSGHYYGGFDYRGQGTLVTVSS
notes: also called F06 family
B2: anti-c-Kit single domain antibody Clone ID # 407921 (VHH)
VHH: B1 VHH with L27F, I29F, S30D, T31S, T53V, G54R, S56G, Y95S, S102P
notes: also called F06 family
B3: anti-c-Kit single domain antibody Clone ID # 408198 (VHH)
VHH: QLQLQESGPGLVKPSETLSLTCTVSGGSISSSSYYWGWIRQPPGKGLEWIGSIDYNGGTYNNPSLKSRVTISVDTSKNQFSLKLSYVTAADTAVYYCARQNPRRYASGASDYRGQGTLVTVSS
notes: also called F18 family
B4: anti-c-Kit single domain antibody Clone ID # 407922 (VHH)
VHH: B1 VHH with T31S, S57R, Y95F
notes: also called F06 family
B5: anti-c-Kit single domain antibody Clone ID # 408389 (VHH)
VHH: B1 VHH with L27F, I29F, S30D, T31S, K43E, S56G, T78M, Y80F, Y95S, H105Y
notes: also called F06 family

The binders below were run against T2, recombinant human c-Kit (Acro Biosystems, #CD7-H52H4) (human, UniProt P10721 26-520) (assay: BLI (Octet HTX), antibody on AHC sensors, c-Kit in solution, 1:1 model).
T2 construct: Bought protein; It was loaded on Ni-NTA sensors for binning, so it probably carries a His tag; also called antigen
Experimental: Table E3 summarizes affinity and epitope bin information for example anti-c-Kit single domain antibodies of the present disclosure. The affinity of each single domain antibody to recombinant human c-Kit (Acro Biosystems, #CD7-H52H4) was measured by Bio-layer interferometry (BLI) using an Octet HTX. AHC (Anti-hIgG Fc Capture) sensors were used to immobilize test antibody at 5 μg/mL. After baseline readings, sensors were dipped into antigen solutions (starting at 500 nM followed by a 7-point, 2-fold dilution series). Association and dissociation were measured for 180 and 240 seconds, respectively. Data were analyzed with Octet Data Analysis v11.0 HT (ForteBio) using a standard 1:1 binding model. Epitope bins for the single domain antibodies were determined by an in-tandem competition BLI binding experiment using an Octet HTX. The antigen (5 μg/mL) was loaded on the sensor Ni-NTA sensor, followed by a baseline in kinetic buffer. The antigen coated sensor was then dipped into a saturating concentration Antibody 1. A second baseline was then set for 300 seconds. The antigen-Antibody 1 complex was dipped into Antibody 2 solution for 180 seconds and then allowed to dissociate.
B1 showed a Kd of 4.71 nM. In the case of B2, the Kd is reported as 2.77 nM. With B3 the Kd was 7.28 nM.

Each binder was assayed against T3, human c-Kit expressed on NOMO-1 cells (human, UniProt P10721 26-976) (assay: flow cytometry cell binding dose curve, NOMO-1 cells expressing human c-Kit).
T3 construct: Endogenous c-Kit of the NOMO-1 AML cell line
Experimental: (§1) The single domain antibodies were tested at a starting concentration of 50 nM, followed by 5-fold serial dilutions for an 8-point dose curve. All washes and dilutions of cells, antibodies, and reagents were performed using flow buffer (lx phosphate buffered saline (PBS), 1% bovine serum albumin (BSA), and 0.1% NaN₃). Cells were pelleted and resuspended at 1×10⁶ cells/mL in flow buffer. Then, 50 μL cells were combined with 50 μL of test antibody and incubated 30 minutes at 4° C., followed by two wash steps with flow buffer. Cells were then resuspended in 50 μL PE-conjugated secondary diluted to 1.25 μg/mL (Southern Biotech #2042-09) and incubated for 20 minutes at 4° C. After two wash steps, cells were resuspended in flow buffer and analyzed using a BD Celesta system. PE mean fluorescence intensity was plotted as a fold over background (cells incubated with secondary detection antibody only).
(§2) To determine cell binding EC50 values for example anti-c-Kit single domain antibodies of the present disclosure, cell binding dose curves were performed on SEM cells expressing human GNNK+c-Kit isoform, SEM cells expressing human GNNK− c-Kit isoform, and NOMO-1 cells expressing human c-Kit. The single domain antibodies were tested at a starting dose of 50 nM, followed by 5-fold serial dilutions for an 8-point dose curve as described in Example 2. The transformed data were plotted as an xy-graph using the non-linear regression curve fit (available in GraphPad Prism 8.4.3) to obtain the EC50 values (nM), which are summarized in Table E2.
Work on B1 yielded an EC50 of 0.39 nM. Binder B2 has an EC50 of 0.26 nM. With B3 the EC50 was 0.32 nM.

The binders below were run against T4, human c-Kit, GNNK+ isoform, expressed on SEM cells (human, UniProt P10721 26-976) (assay: flow cytometry cell binding dose curve, SEM cells expressing human GNNK+ c-Kit).
T4 construct: also called SEM (GNNK+); CD117
Experimental: as §1, §2
B1 gave an EC50 of 0.08 nM. B2 gave an EC50 of 0.03 nM. B3 showed an EC50 of 0.25 nM.

Target: T1, human c-Kit, GNNK- isoform, expressed …
Experiment: flow cytometry cell binding dose curve, SEM cells expressing human GNNK- c-Kit
In the case of B1, the EC50 is reported as 0.09 nM. B2 gave an EC50 of 0.03 nM. In the case of B3, the EC50 is reported as 0.58 nM.

These binders were tested against T3, human c-Kit expressed on NOMO-1 cells (assay: flow cytometry, antibody supernatant on NOMO-1 cells expressing c-Kit, PE secondary).
Experimental: (§3) Pelleted cells were resuspended in flow buffer (lx phosphate buffered saline (PBS), 1% bovine serum albumin (BSA), and 0.1% NaN₃) at 1.25×10⁶ cells/mL. Antibody-containing supernatants were diluted 1:5 in flow buffer and 40 μL cells plus 10 μL diluted antibody supernatant were incubated for 30 minutes at 4° C. Cells were washed with flow buffer and resuspended in 50 μL phycoerythrin (PE)-conjugated secondary antibody (Southern Biotech #2042-09) diluted in flow buffer to 1.25 μg/mL and incubated for 20 minutes at 4° C. After two wash steps, cells were resuspended in flow buffer and analyzed using a Guava easyCyte 8HT system. Table E1 summarizes the target binding activity of the anti-c-Kit single domain antibodies as fold over background MFI signal.
B1 was tested, and the “fold over background MFI signal” value was 43.2 fold over background. For B4, the “fold over background MFI signal” value was 31.1 fold over background. In the case of B2, the “fold over background MFI signal” value is reported as 30.5 fold over background. For B5, the “fold over background MFI signal” value was 43.9 fold over background. With B3 the “fold over background MFI signal” value was 45.7 fold over background.

The binders below were run against T4, human c-Kit, GNNK+ isoform, expressed … (assay: flow cytometry, antibody supernatant on SEM cells expressing human c-Kit GNNK+, PE secondary).
Experimental: as §3
For B1, the “fold over background MFI signal” value was 945 fold over background. For B4, the “fold over background MFI signal” value was 829 fold over background. B2 was tested, and the “fold over background MFI signal” value was 814 fold over background. With B5 the “fold over background MFI signal” value was 934 fold over background. With B3 the “fold over background MFI signal” value was 388 fold over background.

Target: T1, human c-Kit, GNNK- isoform, expressed …
Experiment: flow cytometry, antibody supernatant on SEM cells expressing human c-Kit GNNK-, PE secondary
B1 was tested, and the “fold over background MFI signal” value was 1760 fold over background. For B4, the “fold over background MFI signal” value was 1740 fold over background. For B2, the “fold over background MFI signal” value was 1750 fold over background. In the case of B5, the “fold over background MFI signal” value is reported as 1790 fold over background. B3 was tested, and the “fold over background MFI signal” value was 103 fold over background.
